Assay results taken from the supplement of paper PMC12764529.
± gives the half width of the 95% confidence interval.

Assays:
[1] = folding stability dG unfold from trypsin proteolysis; higher = more stable
How it was run: (§1)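 Designed mini-proteins (under 80 residues, no cysteine) in a PA-tagged cDNA display construct were digested with trypsin and chymotrypsin. Each protease was used at 11 concentrations (threefold dilutions) plus a no-protease condition, followed by sequencing. K50 was inferred by Bayesian fitting of sequencing counts, and unfolding free energy was derived against a sequence-predicted unfolded-state K50 and a shared folded-state K50, per protease or combined. Only designs with AlphaFold2 dimer inter-PAE above 15 were kept.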

[2] = folding stability dG unfold from chymotrypsin proteolysis; higher = more stable
How it was run: as §1

[3] = folding stability dG unfold (combined trypsin and chymotrypsin); higher = more stable
How it was run: as §1

Row | Sequence | folding stability dG unfold [1] [kcal/mol] | folding stability dG unfold [2] [kcal/mol] | folding stability dG unfold [3] [kcal/mol]
1 | SAGGSAGGSAGGRLVVFEVKKDELNITGPGEARVVSVEELPGDRVRVVVEVPEGAVPGLASAGGSAGGSAGG [r17_48_TrMRF] | 0.324 ± 0.084 | 1.27 ± 0.066 | 0.935 ± 0.12
2 | SAGGSAGGSAGPNIYVSIKWKHNNGPVTHQIPIPPNDPPEILDEMSKQPGFKVTDIEVMPSAGGSAGGSAGG [r11_692_TrROS] | -0.836 ± 0.35 | -0.0146 ± 0.3 | -0.213 ± 0.25
3 | SAGGSAGGSKKKITVKIEEVKLNPETGKLVLVKIKLPDGKELVFKTPEEIENLPGAEFEVYELSAGGSAGGS [r20_192_TrROS_Hall] | 1.53 ± 0.14 | 1.47 ± 0.13 | 1.45 ± 0.27
4 | SAGGMVIVFPAPKDISPDELRELIEAEVGPLAEELGLTEASIPIAKVEELPEGSRRVVAVIELRFDGSAGGS [r8_184_TrMRF] | 0.977 ± 0.027 | 0.332 ± 0.048 | 0.718 ± 0.056
5 | SAGGSAGGSAGMTVEVVKSVVPTKTNETVIVTTVTEVEPPTGKVTTLETKTVSTANPELLSAGGSAGGSAGG [r11_777_JUSTAS] | -0.755 ± 0.12 | -0.395 ± 0.11 | -0.369 ± 0.23
6 | SAGGSAGGSAPPWTRVLGLGTFPPGVPDLPVEVPGGNVYALFTPTEDGSVQVLIVDLIPPLSAGGSAGGSAG [r3_464_TrMRF] | 0.472 ± 0.1 | 0.965 ± 0.21 | 0.773 ± 0.17
7 | SAGGDPNGKWVTINIPIWIPGPPEQAEMIAESIMEELGFEITDVKVEPHPDDPNWVRIDITLTFRKKSAGGS [r8_479_TrROS] | 2.74 ± 0.097 | 3.03 ± 0.044 | 2.83 ± 0.18
8 | SAGGSAGGSAAEASVVTFPGDLTAEVTKLPDGSYAVTVTFPENPGATATLTRTPDSVTVTPSAGGSAGGSAG [r3_170_JUSTAS] | 0.0476 ± 0.058 | -1.1 ± 0.56 | -0.342 ± 0.17
9 | SAGGSAGGSAIADEFAEKNPNFQVEVERHTFEMTQYDPDGGWRQHRMFMISITIVPPGDPLSAGGSAGGSAG [r3_358_TrROS] | 2.91 ± 0.19 | 4.07 ± 0.2 | 3.44 ± 0.3
10 | SAGGKKTYKVRIEIKVTDPNGKKRTIEIELEVPESEEEAEKLAKELAEKLKEKGYKVEIVKIEVEPLSAGGS [r16_525_TrROS_Hall] | 3.98 ± 0.2 | 4.08 ± 0.064 | 4.03 ± 0.12
11 | SAGGSAGGWIPPEMARNIAKTLRDKGWPVEDIEVEREPNGWVTVDVDIQYPDGKKRKYPIQIPYSAGGSAGG [r6_762_TrROS] | -0.439 ± 0.22 | 0.226 ± 0.23 | 0.0547 ± 0.17
12 | SAGGSAGGSAGGEKKKIAKKIKEELEKKGIKVKKVETSEDYIYITFEDGSKKKIKIDKGSAGGSAGGSAGGS [r10_169_TrMRF] | 2.1 ± 0.16 | 1.6 ± 0.18 | 1.74 ± 0.2
13 | SAGSKELVIVEKDEPVEGETLDYTNGKKKKFPKKVPVVKEIVLPKNSPEAEKIAKELSPPNVKVEILAKSAG [r5_468_JUSTAS] | -1.08 ± 0.81 | -0.322 ± 0.11 | -0.617 ± 0.32
14 | SAGGSAGGSAGNLKPVSGGGVLKVEVKDPNTDKKETYLVPPNKPDVVLELAKDGYEVEVSSAGGSAGGSAGG [r11_1006_TrMRF] | 0.938 ± 0.11 | 0.227 ± 0.14 | 0.639 ± 0.14
15 | SAGGSAGGSAGGSSTSLIGNSTVTVDPVYVTDTGERGFVISADVPPSVSEAVVEAHVASSAGGSAGGSAGGS [r10_531_JUSTAS] | 0.869 ± 0.028 | 0.0382 ± 0.022 | 0.485 ± 0.05
16 | SAGGSANLPPGQPKIITITIPLGEEVRNPDGEPMTPEDIADNFQERFGNIEVEKSPNGWLEVTFWLSAGGSA [r15_645_TrROS] | 1.3 ± 0.06 | 0.637 ± 0.15 | 1.18 ± 0.19
17 | SAGGSGKVIEIPIELPEDKTITLRLDPETGKAVVEAEENVPLEKVIEAAKKIFEENGFELNGLDISSAGGSA [r2_497_TrMRF] | 0.788 ± 0.032 | 0.725 ± 0.092 | 0.782 ± 0.12
18 | SAGGHHHHHHHHIDGKFRSEEEAKKLKEEIEKELRAKGYTDIEVEVEVKVEEPPPRRPRPGSPAYTLGSAGG [r13_6_JUSTAS] | 1.45 ± 0.16 | 0.573 ± 0.11 | 0.955 ± 0.34
19 | SAGGLIEKLKELGFEIVSVEEREETLPNGKKVRTVKITVKLPNGELVKIEVRVLPNGEVIIKIEVKKPSAGG [r13_818_TrROS_Hall] | 3.72 ± 0.15 | 3.17 ± 0.89 | 3.55 ± 0.27
20 | SAGGMPEKVVVLRIRVTIRRDGEEEEIELEIRLPEEGQELTEEQLLALLRELLPPGYEIRRVEIEELSAGGS [r16_407_TrROS_Hall] | 4.63 ± 0.077 | 4.755 ± 0.043 | 4.73 ± 0.048
21 | SAGGSAGGSAMTLRVKITLPDGRELELEIEAETEEEALAALKELIKKLFPEVKEVKIEVEPESAGGSAGGSA [r18_434_TrROS_Hall] | 3.91 ± 0.3 | 4.85 ± 0.38 | 4.84 ± 0.4
